Positions count from the first letter of the chain named.
Key:
[1] = target: T1, recombinant human tumor necrosis factor-α (human, UniProt P01375 77-233); assay: cell-based or functional assay
[2] = target: T1, recombinant human tumor necrosis …; assay: competition ELISA, rhTNF coated on plate, competitor HRP-labeled humira; given in µg/mL
Experimental: The anti-hTNFα human antibody humira marked with horseradish peroxidase (HRP) was used as a reagent. Elisa plates were coated with rhTNF (50 μl of […]), and left overnight at room temperature. The coating solution was discarded, and each well was blocked with 1% skim milk in phosphate buffered saline (PBS) for about 0.5 hours, and washed with PBS containing 0.05% Tween 20. And then a mixture of 50 μl of growth medium and 50 μl of HRP labeled humira was added to each well. Unlabeled humira and antibody-free medium were used as positive and negative controls. […] The wells in which the binding of HRP-labeled humira and rhTNFα was inhibited Kong were amplified and subcloned, followed by analysis of several mouse monoclonal antibodies which show the inhibition effects, and finally hybridoma cells were screened out. The hybridoma cells were intermediate cultured, and the supernatant was taken for purification, and the mouse monoclonal antibody TM2-11-12 and TM2-6-3. The purified mouse monoclonal antibodies TM2-11-12 and TM2-6-3 were tested in competition binding assays. Even at the concentration up to 1 μg/mL, the mouse antibody TM2-6-3 only competed out about 50% of the binding of humira to hTNFα.

mouse TNFα [3] = target: T2, mouse TNFα (mouse, UniProt P06804 80-235); assay: ELISA, TNFα coated on plate, HRP-labeled anti-human Fc detection
T2 sequence (looked up): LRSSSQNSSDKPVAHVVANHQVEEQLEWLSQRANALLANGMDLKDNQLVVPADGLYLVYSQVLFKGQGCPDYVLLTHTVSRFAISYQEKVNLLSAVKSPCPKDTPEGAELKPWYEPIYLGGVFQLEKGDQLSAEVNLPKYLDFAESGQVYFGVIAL
Experimental: (§1) On a plate, respectively coat recombinant human TNFα 5 ng/well, mouse TNFα 25 ng/well, and monkey TNFα 5 ng/well at room temperature, and blocked for 1 h, washed. And then 1.8-fold gradient dilutions of AT132 was added with an initial concentration of 250 ng/mL, and incubated at 25° C. for 2 h, washed, HRP-labeled anti-human Fc antibody added, and incubated at room temperature for 1 h, washed, and the substrate solution added as 100 μl/well, placed in dark at 37° C. for 30 min. In accordance with the order of the added color reagents, 0.2 M H₂SO₄, 50 μl/well was added to terminate the reaction. Within about 5 minutes after termination, OD values were test at 450 nm/630 nm on a microplate reader, and median effective concentrations were obtained by four-parameter fitting. Compare the binding activities of AT132 to different sources of TNFα.

mouse TNFα [4] = target: T2, mouse TNFα; assay: ELISA, TNFα coated on plate (mouse 25 ng/well, human 5 ng/well), HRP-labeled anti-human Fc detection; calculated from coating and sample concentrations
Experimental: as §1

[5] = target: T1, recombinant human tumor necrosis …; assay: SPR, Biacore X100; antibody captured by goat anti-human IgG Fc on CM5 chip, TNFα as analyte
Experimental: AT132 affinity was determined by Biacore X100, and analyzed with Biacore X100 kinetics/affinity analysis software. Using indirect capture method, goat anti-human IgG Fc polyclonal antibody was coupled to the surface of CM5 chip as a capture molecule by using Amine Coupling Kit. By calculation, AT132 and Humira as control were respectively diluted to a a certain concentration to be lately used as ligand, and TNFα as the analyte. Analytes were diluted to 5 concentrations, and each concentration as a cycle. First, using HBS-EP buffer to run for three cycles, designing an analyte concentration of 0 concentration to run for two cycles, and finally, designing a repeat analyte concentration to run for a cycle. The whole process ran 11 cycles, and each cycle can draw a curve. The dynamics/affinity data of the measured antibody and humira were analyzed by Biacore X100 kinetics/affinity analysis software.

monkey TNFα = monkey TNFα (monkey); assay: ELISA, TNFα coated on plate (5 ng/well), HRP-labeled anti-human Fc detection, four-parameter fit
Experimental: as §1

T1 sequence (P01375 77-233 limits assumed): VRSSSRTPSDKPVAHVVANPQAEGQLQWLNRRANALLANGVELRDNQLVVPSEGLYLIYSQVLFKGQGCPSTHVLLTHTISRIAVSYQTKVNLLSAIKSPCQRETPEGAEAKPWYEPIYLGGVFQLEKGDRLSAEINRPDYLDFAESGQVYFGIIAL

B1: AT135 humanized anti-TNFα antibody (antibody, human IgG1, V domains shown)
VH: QVQLVQSGPELKKPGASVKISCKASGYTFTHYGMHWVKQTPGRGLKWVGWINTYTGEPTYDADFQGRFTFSLDTSVSTAFLQINSLKDEDLAVYFCARYDFDGFDYWGQGTTLTVSS
VL: ENVLTQSPPILSASPGERVTMTCRASSSITFNYLHWYQQKSGDSPKVWIYSTSNLVSGVPSRFSGSGSGTSYSLTISSLEAEDAATYYCQQYSDYPYTFGGGTKLEIK
EC50(ng/mL), neutralization of TNFα killing effect on L929 cell [1]: 50 ng/mL

B2: mouse monoclonal antibody TM2-11-12 (antibody, mouse IgG1, V domains shown)
VH: B1 VH with A16E, S17T, G44S, D73E, V76T, S85T, V93T
VL: B1 VL with L11M, R18E, S61A, L79V
notes: Purified from hybridoma supernatant; The cloning primers are antisense to the mouse IgG1 heavy chain and mouse kappa light chain constant regions; also called anti-hTNFα mouse antibody TM2-11-12
IC50 [2]: ~0.05 µg/mL

B3: AT143 humanized anti-TNFα antibody (antibody, human IgG1, V domains shown)
VH: B1 VH with A16E, D73E, V76T, F80Y, V93T
VL: B1 VL with L11M, W48L, L79V
EC50(ng/mL), neutralization of TNFα killing effect on L929 cell [1]: 39.8 ng/mL

B4: AT164 humanized anti-TNFα antibody (antibody, human IgG1, V domains shown)
VH: B1 VH
VL: B1 VL with L11M, W48L, L79V
EC50(ng/mL), neutralization of TNFα killing effect on L929 cell [1]: 45.5 ng/mL

B5: AT151 humanized anti-TNFα antibody (antibody, human IgG1, V domains shown)
VH: B1 VH with D73E, V93T
VL: B1 VL with R18E, S61A, A84F
EC50(ng/mL), neutralization of TNFα killing effect on L929 cell [1]: 42.1 ng/mL

B6: AT132 humanized anti-TNFα monoclonal antibody (antibody, human IgG1, V domains shown)
VH: B1 VH with D73E, V93T
VL: B1 VL
notes: also called E001VH/F001VL
binding result (mouse TNFα [3]): no binding | EC50(ng/mL), neutralization of TNFα killing effect on L929 cell [1]: 20.4 ng/mL | fold lower binding activity than to human TNFα (mouse TNFα [4]): 1000 times lower | Ka [5]: 8.4e+10 M⁻¹ | Kd [5]: 0.0119 nM | binding activity relative to human TNFα (monkey TNFα): ~50%

From patent US20120219547A1 (LIVZON MABPHARM, published 2012)
